From IntAct's records for PubMed 17170703

B1: Androgen receptor (Homo sapiens), P10275 (parent)
chain: MEVQLGLGRVYPRPPSKTYRGAFQNLFQSVREVIQNPGPRHPEAASAAPPGASLLLLQQQQQQQQQQQQQQQQQQQQQQQETSPRQQQQQQGEDGSPQAHRRGPTGYLVLDEEQQPSQPQSALECHPERGCVPEPGAAVAASKGLPQQLPAPPDEDDSAAPSTLSLLGPTFPGLSSCSADLKDILSEASTMQLLQQQQQEAVSEGSSSGRAREASGAPTSSKDNYLGGTSTISDNAKELCKAVSVSMGLGVEALEHLSPGEQLRGDCMYAPLLGVPPAVRPTPCAPLAECKGSLLDDSAGKSTEDTAEYSPFKGGYTKGLEGESLGCSGSAAAGSSGTLELPSTLSLYKSGALDEAAAYQSRDYYNFPLALAGPPPPPPPPHPHARIKLENPLDYGSAWAAAAAQCRYGDLASLHGAGAAGPGSGSPSAAASSSWHTLFTAEEGQLYGPCGGGGGGGGGGGGGGGGGGGGGGGEAGAVAPYGYTRPPQGLAGQESDFTAPDVWYPGGMVSRVPYPSPTCVKSEMGPWMDSYSGPYGDMRLETARDHVLPIDYYFPPQKTCLICGDEASGCHYGALTCGSCKVFFKRAAEGKQKYLCASRNDCTIDKFRRKNCPSCRLRKCYEAGMTLGARKLKKLGNLKLQEEGEASSTTSPTEETTQKLTVSHIEGYECQPIFLNVLEAIEPGVVCAGHDNNQPDSFAALLSSLNELGERQLVHVVKWAKALPGFRNLHVDDQMAVIQYSWMGLMVFAMGWRSFTNVNSRMLYFAPDLVFNEYRMHKSRMYSQCVRMRHLSQEFGWLQITPQEFLCMKALLLFSIIPVDGLKNQKFFDELRMNYIKELDRIIACKRKNPTSCSRRFYQLTKLLDSVQPIARELHQFTFDLLIKSHMVSVDFPEMMAEIISVQVPKILSGKVKPIYFHTQ
B2: Caspase-8 (Homo sapiens), Q14790 (parent)
chain: MDFSRNLYDIGEQLDSEDLASLKFLSLDYIPQRKQEPIKDALMLFQRLQEKRMLEESNLSFLKELLFRINRLDLLITYLNTRKEEMERELQTPGRAQISAYRVMLYQISEEVSRSELRSFKFLLQEEISKCKLDDDMNLLDIFIEMEKRVILGEGKLDILKRVCAQINKSLLKIINDYEEFSKERSSSLEGSPDEFSNGEELCGVMTISDSPREQDSESQTLDKVYQMKSKPRGYCLIINNHNFAKAREKVPKLHSIRDRNGTHLDAGALTTTFEELHFEIKPHDDCTVEQIYEILKIYQLMDHSNMDCFICCILSHGDKGIIYGTDGQEAPIYELTSQFTGLKCPSLAGKPKVFFIQACQGDNYQKGIPVETDSEEQPYLEMDLSSPQTRYIPDEADFLLGMATVNNCVSYRNPAEGTWYIQSLCQSLRERCPRGDDILTILTEVNYEVSNKDDKKNMGKQMPQPTFTLRKKLVFPSD

Variants of: B1
Details: with casp8_human CASP8, Q14790
For L26A;F27A, the “effect of a mutation on the interaction” value was “disrupting interaction”.

Variants of: B2
Details: with andr_human AR, P10275
F45A was tested, and the “effect of a mutation on the interaction” value was “disrupting interaction strength”.

Variants of: B2
Details: with andr_human AR
In the case of I174A;I175A, the “effect of a mutation on the interaction” value is reported as “disrupting interaction strength”.
